Article PMC6966528

Molecular target: mutant E-cadherin-GFP (Y753, 754, 859, and 876 mutated into F) (human) (UniProt P12830)
Assay: co-IP; lysates of HEK293T cells transiently transfected with WT or mutant E-Cdh-GFP; IP with anti-GFP antibody; Western blot for α- and β-Ctn, densitometry relative to the WT band set to 1

Sequence of UniProt P12830 (P12830 other isoform, or with tags, fused parts or gaps mutant): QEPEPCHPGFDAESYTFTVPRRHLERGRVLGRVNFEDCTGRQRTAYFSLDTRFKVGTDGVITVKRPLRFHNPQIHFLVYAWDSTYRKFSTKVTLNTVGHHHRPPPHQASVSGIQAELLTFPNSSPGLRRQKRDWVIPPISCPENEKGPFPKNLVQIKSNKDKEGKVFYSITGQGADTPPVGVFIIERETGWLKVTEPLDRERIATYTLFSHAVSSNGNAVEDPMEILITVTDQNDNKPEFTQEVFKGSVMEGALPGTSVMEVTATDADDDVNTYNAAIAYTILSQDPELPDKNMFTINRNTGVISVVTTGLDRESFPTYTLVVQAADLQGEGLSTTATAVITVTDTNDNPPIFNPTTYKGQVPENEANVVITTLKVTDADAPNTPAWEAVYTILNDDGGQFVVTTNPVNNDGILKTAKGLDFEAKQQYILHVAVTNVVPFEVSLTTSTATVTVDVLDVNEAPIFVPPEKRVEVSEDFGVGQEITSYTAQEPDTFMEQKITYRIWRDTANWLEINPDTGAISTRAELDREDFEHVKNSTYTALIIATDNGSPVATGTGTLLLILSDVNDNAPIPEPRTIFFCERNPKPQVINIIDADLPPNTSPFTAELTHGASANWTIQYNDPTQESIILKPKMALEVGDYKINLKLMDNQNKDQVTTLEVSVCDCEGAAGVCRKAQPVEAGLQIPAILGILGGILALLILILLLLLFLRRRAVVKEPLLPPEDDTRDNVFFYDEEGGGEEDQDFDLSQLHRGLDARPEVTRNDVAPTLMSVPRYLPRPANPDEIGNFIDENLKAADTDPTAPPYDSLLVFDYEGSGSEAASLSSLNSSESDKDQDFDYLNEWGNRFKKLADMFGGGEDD

Substance | reduction of co-immunoprecipitation relative to WT E-Cdh-GFP
α-catenin (from UniProt P35221 1-906) (natural protein) | 60%
β-catenin (from UniProt P35222 1-781) (natural protein) | 60%
